Source: patent US20180208678A1 (UNIVERSITY OF CHICAGO, published 2018)
Numbering of substitutions follows the chain as printed.

Key:
[1] = biological target: BgaD-D, smallest isozyme of the β-galactosidase from B. circulans ATCC 31382 (Biolacta) (Bacillus circulans ATCC 31382); test: KD (nM) to BgaD-D; assay not given; the values equal those of the bead assay with purified proteins in FIG. 3B [panel c]
[2] = biological target: BgaD-D, smallest isozyme of the β-galactosidase from B. circulans ATCC 31382 (Biolacta) (Bacillus circulans ATCC 31382); test: bead assay, purified proteins: biotinylated monobody on streptavidin-coated beads, BgaD-D titrated (0-1000 nM shown), flow cytometry, 1:1 fit [panel b]
[3] = biological target: BgaD-D, smallest isozyme of the β-galactosidase from B. circulans ATCC 31382 (Biolacta) (Bacillus circulans ATCC 31382); test: cell-based or functional assay
[4] = biological target: BgaD-D active site mutant E447Q (Bacillus circulans ATCC 31382); test: bead assay, purified proteins, target given as BgaD-D/EQ, titrated 0-1000 nM shown, 1:1 fit [panel a]
[5] = biological target: BgaD-D active site mutant E447R (Bacillus circulans ATCC 31382); test: bead assay, purified proteins, target given as BgaD-D/ER, titrated 0-1000 nM shown, 1:1 fit [panel a]
[6] = biological target: BgaD-D, smallest isozyme of the β-galactosidase from B. circulans ATCC 31382 (Biolacta) (Bacillus circulans ATCC 31382); test: bead assay, purified proteins, target given as BgaD-D/WT, titrated 0-1000 nM shown, 1:1 fit [panel a]
[7] = biological target: BgaD-D active site mutant E447K (Bacillus circulans ATCC 31382); test: bead assay, purified proteins, target given as BgaD-D/EK, titrated 0-1000 nM shown, 1:1 fit [panel a]
[8] = biological target: BgaD-D, smallest isozyme of the β-galactosidase from B. circulans ATCC 31382 (Biolacta) (Bacillus circulans ATCC 31382); test: Kd table; yeast-surface display (paragraph 202 repeats it as 12±3 nM)
[9] = biological target: BgaD-D, smallest isozyme of the β-galactosidase from B. circulans ATCC 31382 (Biolacta) (Bacillus circulans ATCC 31382); test: Kd table; method not given
[10] = biological target: BgaD-D, smallest isozyme of the β-galactosidase from B. circulans ATCC 31382 (Biolacta) (Bacillus circulans ATCC 31382); test: Kd table; yeast-surface display (paragraph 202 repeats it as 600±170 nM)
[11] = biological target: BgaD-D, smallest isozyme of the β-galactosidase from B. circulans ATCC 31382 (Biolacta) (Bacillus circulans ATCC 31382); test: bead assay with purified proteins, biotinylated monobody on streptavidin beads (FIG. 3B)
[12] = biological target: T1, Candida rugosa lipase 1 (CRL1) (Candida rugosa, UniProt P20261 16-549, biotinylated with NHS-LC-biotin, about 2 biotin per CRL1 molecule (binding assays)); test: cell-based or functional assay
[13] = biological target: T1, Candida rugosa lipase 1 (CRL1); test: yeast-surface display of the monobody, CRL1 titrated, flow cytometry, 1:1 fit [panel a]
Description: Affinity of monobodies to CRL1 was determined using yeast-surface display, as described previously. Yeast cells displaying a monobody were incubated with varying concentrations of CRL1, washed with the buffer and stained with appropriate fluorescently labeled secondary detection reagents, prior to analysis on a flow cytometer (Guava EasyCyte 6/L, Millipore). KD values were determined from plots of the mean fluorescent intensity against CRL1 concentration by fitting the 1:1 binding model using SigmaPlot software (Systat Software).

B1: Mb(BgaD_L23) (designed binder)
chain: VSSVPTKLEVVAATPTSLLISWDAFDGYWYDYVSFYRITYGESGGNSPVQEFTVPSSSSTATISGLKPGVDYTITVYAYSHSQQQYLSPNSINYRT
[1]
  Kd: 25 nM
[2]
  Kd: 25 nM
[3]
  production of DP4 by BgaD-D (fold reduction): 4.5 fold
  production of DP5+ by BgaD-D (fold reduction): 30 fold
[4]
  Kd: 46 nM
[5]
  Kd: 227 nM
[6]
  Kd: 25 nM
[7]
  Kd: 156 nM
[8]
  Kd: 12 nM

B2: Mb(BgaD_L02) (designed binder)
chain: VSSVPTKLEVVAATPTSLLISWDANGWNYVKYYRITYGETGGNSPVQEFTVPGSSSTATISGLKPGVDYTITVYAYEYYSESSSSPISINYRT
[1]
  Kd: 9.9 nM
[2]
  Kd: 9.9 nM
[4]
  Kd: 12 nM
[5]
  Kd: 11 nM
[9]
  Kd: 5.7 nM
[6]
  Kd: 9.9 nM
[7]
  Kd: 11 nM

B3: Mb(BgaD_S09) (designed binder)
chain: VSSVPTKLEVVAATPTSLLISWDAPAVTVVYYVITYGETGGNSPVQEFTVPGSKSTATISGLKPGVDYTITVYAYSDQVEYYEYFYGSPISINYRT
[1]
  Kd: 171 nM
[2]
  Kd: 171 nM
[4]
  Kd: 239 nM
[5]
  Kd: 157 nM
[9]
  Kd: 184 nM
[6]
  Kd: 171 nM
[7]
  Kd: 178 nM

B4: Mb(BgaD_S10) (designed binder)
chain: VSSVPTKLEVVAATPTSLLISWDAPAVTVVFYLITYGETGASSWPGYQEFTVPGSKSTATISGLKPGVDYTITVYAQYPWDTGSPISINYRT
[1]
  Kd: 13 nM
[2]
  Kd: 13 nM
[4]
  Kd: 16 nM
[5]
  Kd: 16 nM
[9]
  Kd: 15 nM
[6]
  Kd: 13 nM
[7]
  Kd: 12 nM

B5: Mb(BgaD_L19) (designed binder)
chain: B1 chain with F35Y, S43T, N90I
[2]
  Kd: 37 nM
[4]
  Kd: 72 nM
[5]
  Kd: 224 nM
[10]
  Kd: 598 nM
[6]
  Kd: 37 nM
[7]
  Kd: 173 nM

B6: Mb(BgaD_L01) (designed binder)
chain: VSSVPTKLEVVAATPTSLLISWDAMDHTPYVYYYRITYGETGGNSPVQEFTVPGYYSTATISGLKPGVDYTITVYAGDLSWNFDFYSPISINYRT
[9]
  Kd: 163 nM

B7: Mb(BgaD_S11) (designed binder)
chain: VSSVPTKLEVVAATPTSLLISWDAPAVTVVLYVITYGETGPGHSAWPQAFTVPGSKSTATISGLKPGVDYTITVYAYWDWDSHRYSPISINYRT
[9]
  Kd: 246 nM

B8: Mb(BgaD_S12) (designed binder)
chain: B4 chain with L33I, S42A, S43V, Y47H, Q77V, Y78G, T82Y, G83Y
[9]
  Kd: 18 nM

B9: Mb(BgaD_S13) (designed binder)
chain: VSSVPTKLEVVAATPTSLLISWDAPAVTVVFYVITYGETGVHWPGYQKFTVPGSKSTATISGLKPGVDYTITVYAQFPWYMGSPISINYRT
[9]
  Kd: 50 nM

B10: Mb(BgaD_L14) (designed binder)
chain: VSSVPTKLEVVAATPTSLLISWDASSYYGVVSYYRITYGETGGNSPVQEFTVPGYSSTATISGLKPGVDYTITVYASYYYWYTSYTKSPISINYRT
[9]
  Kd: 37 nM
[11]
  Kd: 31 nM

B11: Mb(BgaD_L18) (designed binder)
chain: VSSVPTKLEVVAATPTSLLISWDAESWYWPYYVSYYRITYGETGGNSPVQEFTVPSSSSTATISGLKPGVDYTITVYAFEHHEQRYYSPISINYRT
[9]
  Kd: 147 nM

B12: Mb(BgaD_L22) (designed binder)
chain: B1 chain with F35Y, S43T, E51V, Q84L, N90I
[9]
  Kd: 33 nM

B13: Mb(BgaD_L24) (designed binder)
chain: B1 chain with T14A, S17T, F35Y, S43T, T62I, S80H, N90I
[9]
  Kd: 11 nM

B14: Mb(BgaD_L03) (designed binder)
chain: VSSVPTKLEVVAATPTSLLISWDAGDYWVYYYRITYGETGGNSPVQEFTVPGYSSTATISGLKPGVDYTITVYAGDLSFNTYYYSPISINYRT
[9]
  Kd: 76 nM

B15: Mb(BgaD_L04) (designed binder)
chain: VSSVPTKLEVVAATPTSLLISWDAYEHWSGVYYYRITYGETGGNSPVQEFTVPGSSSTATISGLKPGVDYTITVYAYSYSYASMYSPISINYRT
[9]
  Kd: 137 nM

B16: Mb(BgaD_L05) (designed binder)
chain: VSSVPTKLEVVAATPTSLLISWDAYKSLGGVDYYRITYGETGGNSPVQEFTVPGSSSTATISGLKPGVDYTITVYAGYLWYPYGEWSPISINYRT
[9]
  Kd: 515 nM

B17: Mb(BgaD_S06) (designed binder)
chain: B4 chain with L33V, S42A, S43V, Y47H, Y78G, P79G, W80R, D81W, T82K, G83S
[9]
  Kd: 24 nM

B18: Mb(BgaD_S07) (designed binder)
chain: VSSVPTKLEVVAATPTSLLISWDAPAVTVDLYLITYGETGFSYGFPQAFTVPGSKSTATISGLKPGVDYTITVYASTVDGHSSPISINYRT
[9]
  Kd: 488 nM

B19: 1Mb39 S (designed binder)
chain: VSSVPTKLEVVAATPTSLLISWDAPAVTVDFYLITYGETGGPSWPQAFAVPGSKSTATISGLKPGVDYTITVYASSSSRISSSSSKPISINYRT
[9]
  Kd: 476 nM

B20: Mb(BgaD_S08) (designed binder)
chain: VSSVPTKLEVVAATPTSLLISWDAPAVTVDLYVITYGETGGSSWPQAFTVPGSKSTATISGLKPGVDYTITVYAHSWDHSYSPISINYRT
[9]
  Kd: 214 nM

B21: Mb(CRL_L18) (designed binder)
chain: VSSVPTKLEVVAATPTSLLISWDAMQYSEYDVTYYRITYGETGGNSPVQEFTVPGSSSTATISGLKPGVDYTITVYAVWQYMHYMHSYSPISINYRT
notes: 109 is Mb(S19)); also called Mb(L18)
[12]
  CRL1 activity toward C8 triacylglyceride (fold reduction relative to CRL1 alone): 11 fold
  CRL1 activity toward C10 triacylglyceride (fold reduction relative to CRL1 alone): 102 fold
  CRL1 activity toward C12 triacylglyceride (fold reduction relative to CRL1 alone): 4.5 fold
[13]
  Kd: 54 nM

B22: Mb(CRL_L24) (designed binder)
chain: VSSVPTKLEVVAATPTSLLISWDASSSSVSYYRITYGETGGNSPVQEFTVPGSSSTATISGLKPGVDYTITVYAFGHYYGSWVWSPISINYRT
notes: also called Mb(L24)
[13]
  Kd: 9.3 nM

B23: Mb(CRL_L23) (designed binder)
chain: B22 chain with V83A
notes: Mb(L23) and Mb(L24) differ by one residue and could be 116/117 in either order; also called Mb(L23)
[13]
  Kd: 11 nM
